Literature values, collected in paper PMC3767571.

Target: Sortilin (Homo sapiens) (UniProt Q99523)
Sequence of UniProt Q99523 (Q99523 78-755): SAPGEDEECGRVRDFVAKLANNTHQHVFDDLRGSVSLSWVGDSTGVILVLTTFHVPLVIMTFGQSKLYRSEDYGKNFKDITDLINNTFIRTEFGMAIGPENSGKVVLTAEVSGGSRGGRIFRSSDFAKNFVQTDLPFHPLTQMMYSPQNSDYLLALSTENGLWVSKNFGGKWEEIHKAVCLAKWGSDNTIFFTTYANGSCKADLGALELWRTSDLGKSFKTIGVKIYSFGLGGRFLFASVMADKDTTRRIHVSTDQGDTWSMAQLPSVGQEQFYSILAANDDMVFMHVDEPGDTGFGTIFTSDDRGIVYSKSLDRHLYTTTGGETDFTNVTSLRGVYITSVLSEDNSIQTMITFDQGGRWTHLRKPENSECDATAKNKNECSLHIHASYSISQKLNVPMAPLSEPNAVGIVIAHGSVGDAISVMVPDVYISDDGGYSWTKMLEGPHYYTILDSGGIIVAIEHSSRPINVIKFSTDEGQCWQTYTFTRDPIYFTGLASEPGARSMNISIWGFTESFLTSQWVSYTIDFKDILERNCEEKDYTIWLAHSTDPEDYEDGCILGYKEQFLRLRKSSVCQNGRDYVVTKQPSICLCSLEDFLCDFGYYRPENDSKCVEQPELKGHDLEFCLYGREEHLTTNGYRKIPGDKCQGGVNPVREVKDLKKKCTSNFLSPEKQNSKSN

For Progranulin (from UniProt P28799), which Kd is on record?
Its Kd is 11 nM.
